The record followed here is paper PMC11892609.

First the molecules themselves.
B1: WT mTMIE-HA-Avi [mouse] / Fyn-mTMC2-mCherry [mouse] (parent)
chain 1: QLVEPSTAPPKPKPPPLTKETVVFWDMRLWHVVGIFSLFVLSIIITLCCVFNCRVPRTRKEIEARYLQRKAAKMYTDKLETVPPLNELTEIPGEDKKKKKKDSVDTVAIKVEEDEKNEAKKKGEK
chain 2: MSPQLKSLDEEGDKSARRPTRKQTSRAACPQDGHRAQSSRKDPAKGSPRPGSSRKKQMEHGSYHKGLQGQKPRKVERSLQGRKKDRRTSLKEQRASPKKEREALRKEAGKQLRKPRSTSLGSSVSTGDSLSEEELAQILEQVEEKKKLITTVRNKPWPMAKKLRELREAQAFVEKYEGALGKGKGKHLYAYRMMMAKKWVKFKRDFDNFKTQCIPWEMKIKDIESHFGSSVASYFIFLRWMYGVNLVLFGLIFGLVIIPEVLMGMPYGSIPRKTVPRAEEERAMDFSVLWDFEGYIKYSALFYGYYNNQRTIGWLRYRLPMAYFMVGVSVFGYSLMIVIRSMASNTQGSTSEGDSDSFTFSFKMFTSWDYLIGNSETADNKYVSITTSFKESIVDEQESNKEGNIHLTRFLRVLANFLILCCLCGSGYLIYFVVKRSQEFSKMQNVSWYERNEVEIVMSLLGMFCPPLFETIAALENYHPRTGLKWQLGRIFALFLGNLYTFLLALMDDVHLKLSNEEKIKNITHWTLFNYYNSSGGNESVPRPPPHPADVPRGSCWETAVGIEFMRLTVSDMLVTYLTILVGDFLRACFVRFMNHCWCWDLEAGFPSYAEFDISGNVLGLIFNQGMIWMGSFYAPGLVGINVLRLLTSMYFQCWAVMSSNVPHERVFKASRSNNFYMGLLLLVLFLSLLPVAYTVMSLPPSFDCGPFSGKNRMYDVLHETIENDFPKFLGKIFAFLANPGLIIPAILLMFLAIYYLNSVSKSLSRANAQLRKKIQALREVEKNHKSIKGKAIVTYSEDTIKNSSKNATQIHLTKEEPTSHSSSQIQTLDKKAQGPHTSSTEGGASPSTSWHHVGSQPPRGRRDSGQPQSQTYTGRSPSGKRTQRPHN

Variants of B1 are the subject of the assay. The experiment in a line: pull-down with NeutrAvidin beads, western blot quantification. Particulars: PK-HEK293T cells co-expressing Fyn-mTMC2-mCherry and mTMIE-HA-Avi, three experiments, parent: 1, read off a plot.
On to chain 1 QLVEPSTAPPKPKPPPLTKETVVFWDMRLWHVVGIFSLFVLSIIITLSSVFNCRVPRTRKEIEARYLQRKAAKMYTDKLETVPPLNELTEIPGEDKKKKKKDSVDTVAIKVEEDEKNEAKKKGEK [chain 1 C48S C49S], for which the ratio to parent worked out at 1.7.
